Assays:
S. aureus = assay: P128 MIC in CAMHB and serum; format: cell-based, Staphylococcus aureus
[1] = test system: S. epidermidis stationary phase cells; assay: P128 activity on stationary phase cells (CFU); format: cell-based, Staphylococcus epidermidis; details: 10 μg/mL P128, 2 h
Description: Most in vitro studies examining the activity of antibiotics have been performed on rapidly dividing planktonic bacterial cultures supplemented with rich growth media. However, in infections, bacteria seldom encounter optimal conditions that allow logarithmic growth. It is likely that stationary-phase or non dividing bacteria are common in many persistent Staphylococcus infections such as endocarditis and osteomyelitis and in biofilm-associated infections (e.g., on catheters, grafts, and foreign bodies). Therefore, activity of P128 was determined on stationary phase cells of three S. aureus strains, three S. epidermidis, and two each of S. lugdunensis and S. haemolyticus strains. Briefly, the test cultures were grown overnight in LB (˜10^9 cells), centrifuged, pellet was washed and resuspended in saline. Optical density (OD600) was adjusted to 0.2 (˜10^8 CFU/mL). 100 μL of these cells were treated with 10 μg/mL P128 (in saline) and incubated at 37° C. for 2 h, 200 rpm, cell controls without proteins were maintained. Following incubation, the volume was made up to 1 mL with saline, serially log diluted in saline and plated on LB agar. Incubated at 37° C. for 18 h to enumerate residual CFU to determine cell killing.

S. aureus BK1 biofilms = assay: Scanning electron microscopy of treated biofilms in microtitre plates; format: cell-based, Staphylococcus aureus; details: Gentamycin 50 μg/mL; P128 12.5 μg/mL (lowest concentration tested)
Method: MRSA strain BK1 or MW2 was used for studying biofilm eradication activity of P128 by SEM. For this, biofilms formed in microtitre plates or on the surface of catheters were treated with increasing concentrations of P128 or antibiotics and subjected to SEM. S. aureus BK1 or MW2 was revived on blood agar plates and the culture was grown overnight in TSB supplemented with 20% glucose. The overnight-grown culture was diluted 1:50 in TSB with 2% glucose to achieve OD600=˜0.1. 200 μL of the diluted culture was aliquoted into each well of the 96 well plate and incubated at 37° C. under static conditions for 18 h. After incubation the contents were aspirated, washed twice with 200 μL of PBS, and 100 μL of media+100 μL of drug were added to each well and incubated again at 37° C. for 18 h. The contents were aspirated, washed with 200 μL of PBS and allowed to dry at 37° C. for 15 min. The individual wells were cut out and biofilms visualized by SEM.

[2] = test system: multi-species biofilm (P. aeruginosa PAO1, S. aureus ATCC 700699, E. faecalis ATCC 29212); assay: Lubbock chronic wound pathogenic biofilm (LCWPB) mixed culture model; format: cell-based; details: for CFU/mL of P. aeruginosa / CFU/mL of E. faecalis / CFU/mL of S. aureus: 24 h
Method: LCWPB media (Bolton broth, Oxoid Ltd, supplemented with 50% Bovine Plasma and 5% hemolyzed horse blood) was used for multi-species biofilm formation according to the procedure described. Sun, et al. (2008) “In vitro multispecies Lubbock chronic wound biofilm model” Wound Repair Regen. 16:805-13. Briefly, P. aeruginosa PAO1, E. faecalis ATCC 29212 and S. aureus ATCC 700699 grown on TSB agar plates were inoculated into TSB broth and grown at 37° C. in a shaker for 16 h. The cultures were individually diluted to 1×10^6 CFU/mL, mixed in equal volumes, and 10 μL was added to 3 mL of LCWPB media containing a sterile pipette tip. For biofilm formation either two (P. aeruginosa PAO1, and S. aureus ATCC 700699) or all three bacterial species (P. aeruginosa PAO1, E. faecalis ATCC 29212 and S. aureus ATCC 700699) were inoculated into LCWPB media. In this model the pipette tip acts as a surface for biofilm formation. To test the ability of P128 to prevent biofilm formation, P128 at 10, 50 and 250 μg/mL was added to the tubes and the tubes were incubated at 37° C. in a shaker for 24 h with shaking at 150 rpm. Upon completion of incubation, the tips were removed from the tubes and placed on petri plates for observation. In the absence of P128, a confluent and thick mass of biofilm could be seen. The mass of the biofilm was greater in culture tubes with 3 species than in the ones with 2 species. For enumeration of bacteria in biofilms, the biofilm formed on the tips was washed twice in PBS, transferred into clean test tubes, and again washed twice with PBS. The washed biofilm mass was then transferred to a 50 mL conical polypropylene tube and the biofilm was macerated with sterile scissors. In situations when biofilm formation was not visible, the tips alone were processed as described above. The contents were vortexed thoroughly, diluted and plated on TSA plates. The plates were incubated for 24 h at 37° C. followed by incubation at ambient temperature for 24 h to enhance pigment production.

[3] = two species (P. aeruginosa PAO1, S. aureus ATCC 700699), P128 10 μg/mL

B1: P128: anti-staphylococcal chimeric protein: phage tail associated muralytic enzyme (TAME) cell wall-degrading region plus staphylococcus-specific binding region; SEQ ID NO: 1 (protein)
chain: MSLDSLKKYNGKLPKHDPSFVQPGNRHYKYQCTWYAYNRRGQLGIPVPLWGDAADWIGGAKGAGYGVGRTPKQGACVIWQRGVQGGSPQYGHVAFVEKVLDGGKKIFISEHNYATPNGYGTRTIDMSSAIGKNAQFIYDKKLETPNTGWKTNKYGTLYKSESASFTPNTDIITRTTGPFRSMPQSGVLKAGQTIHYDEVMKQDGHVWVGYTGNSGQRIYLPVRTWNKSTNTLGVLWGTIK
modifications: P128 chimera
Fold reduction in serum MIC (S. aureus; S. aureus MW2): 64 fold | MIC of P128 in CAMHB (S. aureus; S. aureus MW2): 8 μg/ml and (0.29) μM | MIC of P128 in Serum (S. aureus; S. aureus MW2): 0.12 μg/ml and (0.004) μM | Fold reduction in serum MIC (S. aureus; S. aureus USA 300): 64 fold | MIC of P128 in CAMHB (S. aureus; S. aureus USA 300): 8 μg/ml and (0.29) μM | MIC of P128 in Serum (S. aureus; S. aureus USA 300): 0.12 μg/ml and (0.004) μM | CFU/mL, P128 treated ([1]; S. epidermidis B9467 stationary phase): 3.7 × 10^2 CFU/mL | CFU/mL, P128 treated ([1]; S. epidermidis B9470 stationary phase): 1.5 × 10^2 CFU/mL | CFU/mL, P128 treated ([1]; S. epidermidis B9472 stationary phase): 7 × 10^1 CFU/mL | Effect on biofilm by SEM (S. aureus BK1 biofilms): destroyed the biofilm structure and lysed the bacterial cells completely | Prevention of biofilm formation ([2]; P128 1×MIC (10 μg/mL)): prevented the formation of biofilms | CFU/mL of P. aeruginosa ([2]; three species (P. aeruginosa PAO1, S. aureus ATCC 700699, E. faecalis ATCC29212), P128 10 μg/mL): 2.2 × 10^5 CFU/mL | CFU/mL of E. faecalis ([2]; three species, P128 10 μg/mL): 9 × 10^5 CFU/mL | CFU/mL of S. aureus ([2]; three species, P128 10 μg/mL): 2 × 10^4 CFU/mL | CFU/mL of E. faecalis ([2]; three species, P128 50 μg/mL): 1.8 × 10^4 CFU/mL | CFU/mL of P. aeruginosa ([2]; three species, P128 50 μg/mL): 7 × 10^4 CFU/mL | CFU/mL of S. aureus ([2]; three species, P128 50 μg/mL): 2 × 10^3 CFU/mL | CFU/mL of E. faecalis ([2]; three species, P128 250 μg/mL): 1.6 × 10^4 CFU/mL | CFU/mL of P. aeruginosa ([2]; three species, P128 250 μg/mL): 1.7 × 10^5 CFU/mL | CFU/mL of S. aureus ([2]; three species, P128 250 μg/mL): <10 CFU/mL | CFU/mL of P. aeruginosa [2, 3]: 2 × 10^6 CFU/mL | CFU/mL of S. aureus [2, 3]: 2.2 × 10^5 CFU/mL | CFU/mL of P. aeruginosa ([2]; two species, P128 50 μg/mL): 1.5 × 10^5 CFU/mL | CFU/mL of S. aureus ([2]; two species, P128 50 μg/mL): 1.8 × 10^5 CFU/mL | CFU/mL of P. aeruginosa ([2]; two species, P128 250 μg/mL): 8 × 10^5 CFU/mL | CFU/mL of S. aureus ([2]; two species, P128 250 μg/mL): 2 × 10^3 CFU/mL
